Values belong to the binder of their own block, whether it stands above or below them.
How the values were obtained:
Assay in all cases: holdup assay
Parameters in all cases: key: below the threshold = too weak to quantify, mostly under pKd 3.1 to 4
DVL3, Q92997 = molecular target: T1, DVL3, Q92997
T1 sequence (Q92997 244-331, limits assumed, looked up): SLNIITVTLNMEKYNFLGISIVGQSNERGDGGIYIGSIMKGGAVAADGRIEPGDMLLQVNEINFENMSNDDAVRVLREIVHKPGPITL

APBA2_2, Q99767 = molecular target: T2, APBA2_2, Q99767
T2 sequence (Q99767 654-744, limits assumed, looked up): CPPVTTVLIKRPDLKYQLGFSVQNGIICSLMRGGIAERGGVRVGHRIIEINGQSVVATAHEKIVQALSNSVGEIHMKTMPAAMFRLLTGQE

SNTB1, Q13884 = molecular target: T3, SNTB1, Q13884
T3 sequence (Q13884 107-205, limits assumed, looked up): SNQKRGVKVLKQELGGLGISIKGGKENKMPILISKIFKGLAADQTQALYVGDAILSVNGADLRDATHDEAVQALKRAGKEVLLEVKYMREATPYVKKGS

RAPGEF6, Q8TEU7 = molecular target: T4, RAPGEF6, Q8TEU7
T4 sequence (Q8TEU7 525-625, limits assumed, looked up): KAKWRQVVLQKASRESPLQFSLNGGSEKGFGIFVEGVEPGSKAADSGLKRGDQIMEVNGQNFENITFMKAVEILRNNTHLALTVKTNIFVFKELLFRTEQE

GRIP2_3, Q9C0E4 = molecular target: GRIP2_3, Q9C0E4
HTRA1, Q92743 = molecular target: HTRA1, Q92743
GRIP2_6, Q9C0E4 = molecular target: GRIP2_6, Q9C0E4
LIMK2, P53671 = molecular target: LIMK2, P53671
IL16_3, Q14005 = molecular target: IL16_3, Q14005
TJP2_1, Q9UDY2 = molecular target: TJP2_1, Q9UDY2
SCRIB_2, Q14160 = molecular target: SCRIB_2, Q14160
GRASP, Q7Z6J2 = molecular target: GRASP, Q7Z6J2
NHERF4_1, Q86UT5-2 = molecular target: NHERF4_1, Q86UT5-2
MPP6, Q9NZW5 = molecular target: T5, MPP6, Q9NZW5
T5 sequence (Q9NZW5 125-219, limits assumed, looked up): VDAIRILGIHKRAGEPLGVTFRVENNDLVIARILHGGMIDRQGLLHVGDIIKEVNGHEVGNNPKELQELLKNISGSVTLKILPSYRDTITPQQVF

SNX27, Q96L92 = molecular target: SNX27, Q96L92
TJP1_2, Q07157 = molecular target: TJP1_2, Q07157
PDZD2_2, O15018 = molecular target: T6, PDZD2_2, O15018
T6 sequence (O15018 329-429, limits assumed, looked up): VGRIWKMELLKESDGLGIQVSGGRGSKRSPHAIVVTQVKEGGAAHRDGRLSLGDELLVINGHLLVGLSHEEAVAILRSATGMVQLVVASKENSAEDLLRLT

DLG5_1, Q8TDM6 = molecular target: DLG5_1, Q8TDM6
DFNB31_2, Q9P202 = molecular target: T7, DFNB31_2, Q9P202
T7 sequence (Q9P202 274-371, limits assumed, looked up): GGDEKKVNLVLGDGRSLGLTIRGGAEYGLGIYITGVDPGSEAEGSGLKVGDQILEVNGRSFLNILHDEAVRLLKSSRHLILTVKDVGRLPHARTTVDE

LNX2_3, Q8N448 = molecular target: T8, LNX2_3, Q8N448
T8 sequence (Q8N448 463-564, limits assumed, looked up): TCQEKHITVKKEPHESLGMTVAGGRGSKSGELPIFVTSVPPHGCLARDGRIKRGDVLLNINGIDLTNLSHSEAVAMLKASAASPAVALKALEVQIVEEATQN

MPDZ_10, O75970 = molecular target: T9, MPDZ_10, O75970
T9 sequence (O75970 1624-1722, limits assumed, looked up): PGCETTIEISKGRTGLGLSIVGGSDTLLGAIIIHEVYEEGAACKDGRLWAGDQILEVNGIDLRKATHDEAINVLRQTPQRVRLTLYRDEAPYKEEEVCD

DLG1_1, Q12959 = molecular target: DLG1_1, Q12959
ARHGEF11, O15085 = molecular target: T10, ARHGEF11, O15085
T10 sequence (O15085 42-136, limits assumed, looked up): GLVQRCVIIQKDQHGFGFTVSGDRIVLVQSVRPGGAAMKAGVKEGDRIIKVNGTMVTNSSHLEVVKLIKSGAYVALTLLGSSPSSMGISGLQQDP

SCRIB_3, Q14160 = molecular target: SCRIB_3, Q14160
IL16_4, Q14005 = molecular target: IL16_4, Q14005
APBA2_1, Q99767 = molecular target: T11, APBA2_1, Q99767
T11 sequence (Q99767 563-664, limits assumed, looked up): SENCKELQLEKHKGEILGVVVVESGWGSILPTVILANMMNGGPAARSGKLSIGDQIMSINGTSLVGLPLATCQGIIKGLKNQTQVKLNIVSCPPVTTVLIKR

[1] = plain residues with an end cap or a label only (N-terminal biotin on a linker: gsgsgs; C-terminal amide)
[2] = plain residues with an end cap or a label only (N-terminal biotin on a linker: ahx)
[3] = plain residues with an end cap or a label only (N-terminal biotin on a linker: ttds)

TJP2_1, Q9UDY2, sequence (Q9UDY2 24-128): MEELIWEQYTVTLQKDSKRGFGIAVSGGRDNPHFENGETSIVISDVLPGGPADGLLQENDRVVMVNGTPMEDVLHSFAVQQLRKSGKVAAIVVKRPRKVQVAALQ
IL16_3, Q14005, sequence (Q14005 1107-1207): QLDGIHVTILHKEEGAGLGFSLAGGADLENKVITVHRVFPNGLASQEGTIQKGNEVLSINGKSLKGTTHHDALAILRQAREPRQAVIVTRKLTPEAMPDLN
SCRIB_2, Q14160, sequence (Q14160 857-960): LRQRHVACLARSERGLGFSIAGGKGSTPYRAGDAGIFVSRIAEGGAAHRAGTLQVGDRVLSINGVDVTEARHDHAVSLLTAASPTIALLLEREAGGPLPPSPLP
HTRA1, Q92743, sequence (Q92743 360-477): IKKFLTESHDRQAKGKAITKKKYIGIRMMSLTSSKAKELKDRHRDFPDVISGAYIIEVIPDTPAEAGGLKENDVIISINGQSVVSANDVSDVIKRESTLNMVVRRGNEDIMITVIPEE
GRIP2_3, Q9C0E4, sequence (Q9C0E4 238-339): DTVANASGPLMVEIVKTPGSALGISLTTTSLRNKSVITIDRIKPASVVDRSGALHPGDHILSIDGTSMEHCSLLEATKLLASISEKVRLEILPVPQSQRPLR
IL16_4, Q14005, sequence (Q14005 1229-1329): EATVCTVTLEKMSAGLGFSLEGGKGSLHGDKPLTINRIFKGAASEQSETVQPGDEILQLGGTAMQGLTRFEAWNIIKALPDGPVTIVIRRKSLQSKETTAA
TJP1_2, Q07157, sequence (Q07157 181-274): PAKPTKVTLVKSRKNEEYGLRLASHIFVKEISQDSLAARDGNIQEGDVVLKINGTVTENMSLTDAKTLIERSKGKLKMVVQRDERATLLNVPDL
DLG5_1, Q8TDM6, sequence (Q8TDM6 617-713): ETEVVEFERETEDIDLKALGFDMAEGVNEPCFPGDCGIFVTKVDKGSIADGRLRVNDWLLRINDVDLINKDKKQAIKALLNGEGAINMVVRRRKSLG
SCRIB_3, Q14160, sequence (Q14160 999-1103): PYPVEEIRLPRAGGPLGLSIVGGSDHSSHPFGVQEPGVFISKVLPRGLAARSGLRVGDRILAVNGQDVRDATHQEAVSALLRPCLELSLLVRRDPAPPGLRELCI
NHERF4_1, Q86UT5-2, sequence (Q86UT5 other isoform, or with tags, fused parts or gaps): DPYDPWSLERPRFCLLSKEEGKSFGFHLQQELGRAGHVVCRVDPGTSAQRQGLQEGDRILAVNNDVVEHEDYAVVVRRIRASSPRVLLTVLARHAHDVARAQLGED
LIMK2, P53671, sequence (P53671 143-248): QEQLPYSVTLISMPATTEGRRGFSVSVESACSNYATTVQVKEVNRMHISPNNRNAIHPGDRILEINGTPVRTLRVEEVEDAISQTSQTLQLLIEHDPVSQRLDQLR
GRASP, Q7Z6J2, sequence (Q7Z6J2 96-193): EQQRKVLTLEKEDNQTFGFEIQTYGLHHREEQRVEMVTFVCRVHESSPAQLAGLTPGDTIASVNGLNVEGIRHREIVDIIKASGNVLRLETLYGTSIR
GRIP2_6, Q9C0E4, sequence (Q9C0E4 648-740): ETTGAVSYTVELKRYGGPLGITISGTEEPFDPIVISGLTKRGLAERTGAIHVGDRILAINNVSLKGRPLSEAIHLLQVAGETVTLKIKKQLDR

pKd (DVL3, Q92997; [1]): below the threshold | pKd (APBA2_2, Q99767; [1]): below the threshold | pKd (SNTB1, Q13884; [1]): 3.53 | pKd (RAPGEF6, Q8TEU7; [1]): below the threshold | pKd (GRIP2_3, Q9C0E4; [1]): below the threshold | pKd (HTRA1, Q92743; [1]): below the threshold | pKd (GRIP2_6, Q9C0E4; [1]): below the threshold | pKd (LIMK2, P53671; [1]): below the threshold | pKd (IL16_3, Q14005; [1]): below the threshold | pKd (TJP2_1, Q9UDY2; [1]): below the threshold | pKd (SCRIB_2, Q14160; [1]): 3.65 | pKd (GRASP, Q7Z6J2; [1]): below the threshold | pKd (NHERF4_1, Q86UT5-2; [1]): below the threshold | pKd (MPP6, Q9NZW5; [1]): below the threshold | pKd (SNX27, Q96L92; [1]): 4.59 | pKd (TJP1_2, Q07157; [1]): below the threshold | pKd (PDZD2_2, O15018; [1]): below the threshold | pKd (DLG5_1, Q8TDM6; [1]): below the threshold | pKd (DFNB31_2, Q9P202; [1]): below the threshold | pKd (LNX2_3, Q8N448; [1]): below the threshold | pKd (MPDZ_10, O75970; [1]): below the threshold | pKd (DLG1_1, Q12959; [1]): below the threshold | pKd (ARHGEF11, O15085; [1]): below the threshold | pKd (SCRIB_3, Q14160; [1]): 4.61 | pKd (IL16_4, Q14005; [1]): below the threshold | pKd (APBA2_1, Q99767; [1]): below the threshold
Binder: YGIVQETTFDLGGDIH [MLLT4_int, P55196]

pKd (DVL3, Q92997; [2]): below the threshold | pKd (APBA2_2, Q99767; [2]): below the threshold | pKd (SNTB1, Q13884; [2]): below the threshold | pKd (RAPGEF6, Q8TEU7; [2]): below the threshold | pKd (GRIP2_3, Q9C0E4; [2]): below the threshold | pKd (HTRA1, Q92743; [2]): below the threshold | pKd (GRIP2_6, Q9C0E4; [2]): below the threshold | pKd (LIMK2, P53671; [2]): below the threshold | pKd (IL16_3, Q14005; [2]): below the threshold | pKd (TJP2_1, Q9UDY2; [2]): below the threshold | pKd (SCRIB_2, Q14160; [2]): below the threshold | pKd (GRASP, Q7Z6J2; [2]): below the threshold | pKd (NHERF4_1, Q86UT5-2; [2]): below the threshold | pKd (MPP6, Q9NZW5; [2]): below the threshold | pKd (SNX27, Q96L92; [2]): 5.64 | pKd (TJP1_2, Q07157; [2]): below the threshold | pKd (PDZD2_2, O15018; [2]): below the threshold | pKd (DLG5_1, Q8TDM6; [2]): below the threshold | pKd (DFNB31_2, Q9P202; [2]): below the threshold | pKd (LNX2_3, Q8N448; [2]): below the threshold | pKd (MPDZ_10, O75970; [2]): below the threshold | pKd (DLG1_1, Q12959; [2]): below the threshold | pKd (ARHGEF11, O15085; [2]): below the threshold | pKd (SCRIB_3, Q14160; [2]): below the threshold | pKd (IL16_4, Q14005; [2]): below the threshold | pKd (APBA2_1, Q99767; [2]): below the threshold
Binder: RAVEEEESRF [PSCDBP, O60759]

pKd (DVL3, Q92997; [3]): below the threshold | pKd (APBA2_2, Q99767; [3]): below the threshold | pKd (SNTB1, Q13884; [3]): 3.55 | pKd (RAPGEF6, Q8TEU7; [3]): below the threshold | pKd (GRIP2_3, Q9C0E4; [3]): below the threshold | pKd (HTRA1, Q92743; [3]): below the threshold | pKd (GRIP2_6, Q9C0E4; [3]): below the threshold | pKd (LIMK2, P53671; [3]): below the threshold | pKd (IL16_3, Q14005; [3]): below the threshold | pKd (TJP2_1, Q9UDY2; [3]): below the threshold | pKd (SCRIB_2, Q14160; [3]): below the threshold | pKd (GRASP, Q7Z6J2; [3]): 3.93 | pKd (NHERF4_1, Q86UT5-2; [3]): 4.32 | pKd (MPP6, Q9NZW5; [3]): below the threshold | pKd (SNX27, Q96L92; [3]): below the threshold | pKd (TJP1_2, Q07157; [3]): below the threshold | pKd (PDZD2_2, O15018; [3]): below the threshold | pKd (DLG5_1, Q8TDM6; [3]): below the threshold | pKd (DFNB31_2, Q9P202; [3]): below the threshold | pKd (LNX2_3, Q8N448; [3]): below the threshold | pKd (MPDZ_10, O75970; [3]): below the threshold | pKd (DLG1_1, Q12959; [3]): below the threshold | pKd (ARHGEF11, O15085; [3]): 3.62 | pKd (SCRIB_3, Q14160; [3]): 4.72 | pKd (IL16_4, Q14005; [3]): below the threshold | pKd (APBA2_1, Q99767; [3]): below the threshold
Binder: RPLPRKVSQL [DOCK4, Q8N1I0]

From paper PMC9482650, “Quantitative fragmentomics allow affinity mapping of interactomes” (Nature Communications, 2022)
